From article PMC9135631 (2022) come the findings set out here.

Changes are numbered by the printed parent chain.

As a reminder, the Kd is the equilibrium constant for the complex coming apart. A low value points to tighter binding.

Assay [1] concerns the target T1, Latrophilin-3 ADHD-related variant R465S (Lphn3^R465S) (human).
T1 chain: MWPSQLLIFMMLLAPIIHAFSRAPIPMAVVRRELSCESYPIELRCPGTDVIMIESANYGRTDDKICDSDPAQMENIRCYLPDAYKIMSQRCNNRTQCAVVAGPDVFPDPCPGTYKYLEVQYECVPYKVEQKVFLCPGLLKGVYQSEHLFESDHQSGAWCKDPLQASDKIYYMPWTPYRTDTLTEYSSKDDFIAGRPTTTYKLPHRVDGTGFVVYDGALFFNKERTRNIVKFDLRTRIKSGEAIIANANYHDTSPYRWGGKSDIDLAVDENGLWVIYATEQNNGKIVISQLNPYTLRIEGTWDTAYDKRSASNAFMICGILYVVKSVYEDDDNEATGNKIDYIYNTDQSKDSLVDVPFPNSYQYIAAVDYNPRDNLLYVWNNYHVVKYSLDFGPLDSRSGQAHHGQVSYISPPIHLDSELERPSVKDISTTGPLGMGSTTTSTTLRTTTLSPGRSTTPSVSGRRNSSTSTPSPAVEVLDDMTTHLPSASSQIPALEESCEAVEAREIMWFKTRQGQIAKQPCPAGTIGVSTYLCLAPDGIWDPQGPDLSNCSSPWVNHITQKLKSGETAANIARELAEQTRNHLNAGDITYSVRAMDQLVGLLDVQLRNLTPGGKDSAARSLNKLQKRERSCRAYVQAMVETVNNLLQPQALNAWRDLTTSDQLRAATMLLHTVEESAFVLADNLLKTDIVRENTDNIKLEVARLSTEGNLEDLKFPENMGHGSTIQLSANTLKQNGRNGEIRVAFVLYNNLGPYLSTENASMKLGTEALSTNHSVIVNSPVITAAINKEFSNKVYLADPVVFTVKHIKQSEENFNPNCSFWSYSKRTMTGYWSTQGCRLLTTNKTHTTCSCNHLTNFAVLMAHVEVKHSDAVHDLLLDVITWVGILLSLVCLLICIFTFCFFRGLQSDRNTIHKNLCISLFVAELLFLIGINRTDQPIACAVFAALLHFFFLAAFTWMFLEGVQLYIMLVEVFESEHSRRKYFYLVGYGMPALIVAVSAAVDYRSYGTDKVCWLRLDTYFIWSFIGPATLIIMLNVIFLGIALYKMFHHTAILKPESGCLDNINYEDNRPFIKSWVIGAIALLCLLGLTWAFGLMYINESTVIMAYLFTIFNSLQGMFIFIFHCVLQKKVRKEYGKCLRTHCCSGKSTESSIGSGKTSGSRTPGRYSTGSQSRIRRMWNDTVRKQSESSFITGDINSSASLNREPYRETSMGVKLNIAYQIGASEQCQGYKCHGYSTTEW

The target in assay [2] is T2, Latrophilin-3 ADHD-related variant D615N (Lphn3^D615N) (human).
T2 chain: T1 chain with S465R, D615N

B1: soluble FLRT3 extracellular domain fused to the constant fraction of human IgG (FLRT3^ECD-Fc) (Fc fusion)
chain: KSCPSVCRCDAGFIYCNDRFLTSIPTGIPEDATTLYLQNNQINNAGIPSDLKNLLKVERIYLYHNSLDEFPTNLPKYVKELHLQENNIRTITYDSLSKIPYLEELHLDDNSVSAVSIEEGAFRDSNYLRLLFLSRNHLSTIPWGLPRTIEELRLDDNRISTISSPSLQGLTSLKRLVLDGNLLNNHGLGDKVFFNLVNLTELSLVRNSLTAAPVNLPGTNLRKLYLQDNHINRVPPNAFSYLRQLYRLDMSNNNLSNLPQGIFDDLDNITQLILRNNPWYCGCKMKWVRDWLQSLPVKVNVRGLMCQAPEKVRGMAIKDLNAELFDCKDSGIVSTIQITTAIPNTVYPAQGQWPAPVTKQPDIKNPKLTKDHQTTGSPSRKTITITVKSVTSDTIHISWKLALPMTALRLSWLKLGHSPAFGSITETIVTGERSEYLVTALEPDSPYKVCMVPMETSNLYLFDETPVCIETETAPLRMYNPTTTLNREQEKEPYKNPNLP
modifications: HA/Flag epitopes left out; isoform assumed; signal peptide removed and GPS autoproteolysis expected
For the molecule B1, the dissociation constant (Kd) came to 1.02 nM in assay [1] and 1.25 nM in assay [2].
